Source: US20070098715A1

Target: Ten-M2 endogenously expressed on human cancer cell lines (SNB-19 and others) (human) (UniProt Q9NT68)
Test: flow cytometry on SNB-19 cells at 4° C., Alexa647 anti-human IgG secondary

Substance: isotype control Ab (antibody)
- Total Bound Fluorescence: 2.2
